Source: patent publication US20250011363A1, “OPTIMIZED SHORTENED PEPTIDE THAT BINDS TO ACETYLCHOLINE RECEPTOR, AND USE THEREOF” (SKINMED CO., LTD., priority 2021, published 2025)

B1: 6mer-2-181 (peptide)
peptide: RWQQKK
B2: 6mer-2-190 (peptide)
peptide: KVYLKR
B3: 6mer-2-191 (peptide)
peptide: RQLLKR
B4: 6mer-2-196 (peptide)
peptide: KSQRKK
B5: 6mer-2-800 (peptide)
peptide: RTAWKK
B6: 6mer-2-808 (peptide)
peptide: RKKFKK
B7: 6mer-2-173 (peptide)
peptide: RQQCKK
B8: 6mer-2-802 (peptide)
peptide: KETKRR
B9: 6mer-2-804 (peptide)
peptide: RNCGKR
B10: 6mer-2-198 (peptide)
peptide: KWYYRK
B11: 6mer-2-810 (peptide)
peptide: KHAKKK
B12: 6mer-2-186 (peptide)
peptide: KQICRK
B13: 6mer-2-816 (peptide)
peptide: RKMGKR
B14: 6mer-2-823 (peptide)
peptide: REDWRK
B15: 6mer-2-189 (peptide)
peptide: RWQCKK
B16: 6mer-2-811 (peptide)
peptide: KAMKRK
B17: 6mer-2-821 (peptide)
peptide: RPTMKR
B18: 6mer-2-830 (peptide)
peptide: RMKFKR
B19: 6mer-2-812 (peptide)
peptide: KPPEKR
B20: 6mer-2-194 (peptide)
peptide: KLRLRK
B21: 6mer-2-192 (peptide)
peptide: RWFSKK
B22: 6mer-2-801 (peptide)
peptide: RPNIRK
B23: 6mer-2-182 (peptide)
peptide: KLFYKK
B24: 6mer-2-814 (peptide)
peptide: RYMERK
B25: 6mer-2-179 (peptide)
peptide: RRVYRR
B26: 6mer-2-806 (peptide)
peptide: KHCVRK
B27: 6mer-2-824 (peptide)
peptide: RITNKR
B28: 6mer-2-162 (peptide)
peptide: KVISKR
B29: 6mer-2-199 (peptide)
peptide: RGQYKR
B30: 6mer-2-163 (peptide)
peptide: KWFYRR
B31: 6mer-2-813 (peptide)
peptide: KKMDRR
B32: 6mer-2-165 (peptide)
peptide: KWFTRR
B33: 6mer-2-177 (peptide)
peptide: RSVTKK
B34: 6mer-2-178 (peptide)
peptide: KWLLRR
B35: 6mer-2-833 (peptide)
peptide: RKTWRR
B36: 6mer-2-195 (peptide)
peptide: KSRQKR
B37: 6mer-2-172 (peptide)
peptide: KVIRKK
B38: 6mer-2-817 (peptide)
peptide: KCNDKK
B39: 6mer-2-174 (peptide)
peptide: KLLRKR
B40: 6mer-2-167 (peptide)
peptide: KLFQKR
B41: 6mer-2-822 (peptide)
peptide: RCTAKK
B42: 6mer-2-834 (peptide)
peptide: RFWWKR
B43: 6mer-2-169 (peptide)
peptide: KRQSRR
B44: 6mer-2-799 (peptide)
peptide: KCSAKK
B45: 6mer-2-829 (peptide)
peptide: KKKIRR
B46: 6mer-2-201 (peptide)
peptide: KLFLRR
B47: 6mer-2-188 (peptide)
peptide: RGYTKR
B48: 6mer-2-819 (peptide)
peptide: KFSVRR
B49: 6mer-2-835 (peptide)
peptide: RHCGKR
B50: 6mer-2-815 (peptide)
peptide: KICGRK
B51: 6mer-2-807 (peptide)
peptide: KIWNRK
B52: 6mer-2-176 (peptide)
peptide: RWIYRR
B53: 6mer-2-160 (peptide)
peptide: RVRRKK
B54: 6mer-2-187 (peptide)
peptide: KRRRRK
B55: 6mer-2-828 (peptide)
peptide: RMKKKR
B56: 6mer-2-832 (peptide)
peptide: KYHNRR
B57: 6mer-2-170 (peptide)
peptide: RQYQKK
B58: 6mer-2-180 (peptide)
peptide: RLRLKR
B59: 6mer-2-827 (peptide)
peptide: KYAEKK
B60: 6mer-2-200 (peptide)
peptide: RGVQRK
B61: 6mer-2-185 (peptide)
peptide: RGYQKR
B62: 6mer-2-161 (peptide)
peptide: KWRRKK
B63: 6mer-2-164 (peptide)
peptide: KRQRRK
B64: 6mer-2-809 (peptide)
peptide: REPWRR
B65: 6mer-2-826 (peptide)
peptide: RNTPRK
B66: 6mer-2-166 (peptide)
peptide: RWLRKR
B67: 6mer-2-193 (peptide)
peptide: KWISKR
B68: 6mer-2-805 (peptide)
peptide: RDTMKK
B69: 6mer-2-168 (peptide)
peptide: RVFLKR
B70: 6mer-2-184 (peptide)
peptide: KWVSRR
B71: 6mer-2-820 (peptide)
peptide: RPNNKK
B72: 6mer-2-831 (peptide)
peptide: RMTWRK
B73: 6mer-2-175 (peptide)
peptide: KVYLRK
B74: 6mer-2-171 (peptide)
peptide: RQQTRR
B75: 6mer-2-818 (peptide)
peptide: KTPERK
B76: 6mer-2-803 (peptide)
peptide: RNKERK
B77: 6mer-2-825 (peptide)
peptide: KIHARK
B78: 6mer-2-197 (peptide)
peptide: RGQYRR
B79: 6mer-2-183 (peptide)
peptide: RLQLRR

Each binder was assayed against acetylcholine receptor (assay: SPR, receptor immobilized, peptide 10 uM).
A Binding affinity of 139 RU was found for B1 in this work. A Binding affinity of 148 RU was found for B2 in this work. A Binding affinity of 154 RU was found for B3 in this work. A Binding affinity of 121 RU was found for B4 in this work. A Binding affinity (RU) of 11 RU was found for B5 in this work. A Binding affinity (RU) of 21 RU was found for B6 in this work. A Binding affinity of 127 RU was found for B7 in this work. A Binding affinity (RU) of 24 RU was found for B8 in this work. A Binding affinity (RU) of 21 RU was found for B9 in this work. A Binding affinity of 139 RU was found for B10 in this work. A Binding affinity (RU) of 18 RU was found for B11 in this work. A Binding affinity of 127 RU was found for B12 in this work. A Binding affinity (RU) of 15 RU was found for B13 in this work. A Binding affinity (RU) of 25 RU was found for B14 in this work. A Binding affinity of 121 RU was found for B15 in this work. A Binding affinity (RU) of 16 RU was found for B16 in this work. A Binding affinity (RU) of 33 RU was found for B17 in this work. A Binding affinity (RU) of 21 RU was found for B18 in this work. A Binding affinity (RU) of 33 RU was found for B19 in this work. A Binding affinity of 154 RU was found for B20 in this work. A Binding affinity of 133 RU was found for B21 in this work. A Binding affinity (RU) of 24 RU was found for B22 in this work. A Binding affinity of 139 RU was found for B23 in this work. A Binding affinity (RU) of 28 RU was found for B24 in this work. A Binding affinity of 121 RU was found for B25 in this work. A Binding affinity (RU) of 30 RU was found for B26 in this work. A Binding affinity (RU) of 26 RU was found for B27 in this work. A Binding affinity of 136 RU was found for B28 in this work. A Binding affinity of 137 RU was found for B29 in this work. A Binding affinity of 149 RU was found for B30 in this work. A Binding affinity (RU) of 29 RU was found for B31 in this work. A Binding affinity of 139 RU was found for B32 in this work. A Binding affinity of 136 RU was found for B33 in this work. A Binding affinity of 133 RU was found for B34 in this work. A Binding affinity (RU) of 14 RU was found for B35 in this work. A Binding affinity of 154 RU was found for B36 in this work. A Binding affinity of 128 RU was found for B37 in this work. A Binding affinity (RU) of 22 RU was found for B38 in this work. A Binding affinity of 142 RU was found for B39 in this work. A Binding affinity of 145 RU was found for B40 in this work. A Binding affinity (RU) of 13 RU was found for B41 in this work. A Binding affinity (RU) of 28 RU was found for B42 in this work. A Binding affinity of 123 RU was found for B43 in this work. A Binding affinity (RU) of 13 RU was found for B44 in this work. A Binding affinity (RU) of 22 RU was found for B45 in this work. A Binding affinity of 148 RU was found for B46 in this work. A Binding affinity of 142 RU was found for B47 in this work. A Binding affinity (RU) of 23 RU was found for B48 in this work. A Binding affinity (RU) of 20 RU was found for B49 in this work. A Binding affinity (RU) of 30 RU was found for B50 in this work. A Binding affinity (RU) of 28 RU was found for B51 in this work. A Binding affinity of 144 RU was found for B52 in this work. A Binding affinity of 121 RU was found for B53 in this work. A Binding affinity of 145 RU was found for B54 in this work. A Binding affinity (RU) of 32 RU was found for B55 in this work. A Binding affinity (RU) of 32 RU was found for B56 in this work. A Binding affinity of 128 RU was found for B57 in this work. A Binding affinity of 142 RU was found for B58 in this work. A Binding affinity (RU) of 13 RU was found for B59 in this work. A Binding affinity of 121 RU was found for B60 in this work. A Binding affinity of 137 RU was found for B61 in this work. A Binding affinity of 154 RU was found for B62 in this work. A Binding affinity of 135 RU was found for B63 in this work. A Binding affinity (RU) of 18 RU was found for B64 in this work. A Binding affinity (RU) of 11 RU was found for B65 in this work. A Binding affinity of 125 RU was found for B66 in this work. A Binding affinity of 127 RU was found for B67 in this work. A Binding affinity (RU) of 12 RU was found for B68 in this work. A Binding affinity of 135 RU was found for B69 in this work. A Binding affinity of 136 RU was found for B70 in this work. A Binding affinity (RU) of 24 RU was found for B71 in this work. A Binding affinity (RU) of 29 RU was found for B72 in this work. A Binding affinity of 137 RU was found for B73 in this work. A Binding affinity of 139 RU was found for B74 in this work. A Binding affinity (RU) of 13 RU was found for B75 in this work. A Binding affinity (RU) of 18 RU was found for B76 in this work. A Binding affinity (RU) of 11 RU was found for B77 in this work. A Binding affinity of 126 RU was found for B78 in this work. A Binding affinity of 154 RU was found for B79 in this work.
